According to publication PMC4356369, “An intermolecular binding mechanism involving multiple LysM domains mediates carbohydrate recognition by an endopeptidase” (Acta Crystallographica Section D: Biological Crystallography, 2015):
Blank lines part the entries; values can stand above or below the molecule they belong to.

Legend:
[1] = biological target: T1, P60_tth (TTHA0266), full-length (Thermus thermophilus, UniProt Q5SLM7); assay: microscale thermophoresis; type: binding; conditions: labelled protein (200 nM); 50 mM phosphate pH 7.5, 0.1% Tween 20; incubated 1 h at 60°C, measured at room temperature; read-out: apparent Kd
T1 construct: full-length P60_tth (LysM1, LysM2, NlpC/P60 catalytic domain); Trx/His/S-tag fusion cut by TEV, expressed in E. coli BL21 Rosetta 2 (DE3)

[2] = biological target: T2, P60_tth (TTHA0266), full-length (Thermus thermophilus, UniProt Q5SLM7, F76A/R80A/E99A); assay: microscale thermophoresis; type: binding; conditions: labelled protein (200 nM); 50 mM phosphate pH 7.5, 0.1% Tween 20; incubated 1 h at 60°C, measured at room temperature; P60_tth_LysM2_mut
T2 construct: full-length P60_tth (LysM1, LysM2, NlpC/P60 catalytic domain); Trx/His/S-tag fusion cut by TEV, expressed in E. coli BL21 Rosetta 2 (DE3)

P60_2LysM = biological target: T3, P60_2LysM (Thermus thermophilus, UniProt Q5SLM7); assay: X-ray co-crystal structure, […] Å; type: binding; conditions: co-crystallized at protein:sugar 1:2; LysM1 and LysM2 of symmetry-related monomers share one ligand; pH 6.5
T3 construct: gene TTHA0266; LysM1-LysM2 only, no catalytic domain; Trx/His/S-tag fusion cut by TEV, expressed in E. coli

[3] = biological target: T4, P60_tth (TTHA0266), full-length (Thermus thermophilus, UniProt Q5SLM7, Y28A/R32A/F50A/Q53A); assay: microscale thermophoresis; type: binding; conditions: labelled protein (200 nM); 50 mM phosphate pH 7.5, 0.1% Tween 20; incubated 1 h at 60°C, measured at room temperature; P60_tth_LysM1_mut (Nus/His/S-tag fusion, tags cleaved)
T4 construct: full-length P60_tth (LysM1, LysM2, NlpC/P60 catalytic domain); Trx/His/S-tag fusion cut by TEV, expressed in E. coli BL21 Rosetta 2 (DE3)

[4] = biological target: P60_cata (catalytic domain of P60_tth alone) (Thermus thermophilus); assay: SAXS; small-angle X-ray scattering in solution, ESRF beamline BM-29; molecular weight estimated from the scattering; models evaluated with CRYSOL and CORAL
[5] = biological target: P60_cata (catalytic domain of P60_tth alone) (Thermus thermophilus); assay: SEC; Superdex 75 10/300 GL, 50 mM Tris-HCl pH 8, 200 mM NaCl, 5 mM beta-mercaptoethanol, 0.5 ml/min; apparent molecular weight from a calibration curve
[6] = biological target: P60_tth (TTHA0266), NlpC/P60 D,L-endopeptidase from Thermus thermophilus, full-length protein (Thermus thermophilus) (UniProt Q5SLM7); assay: SAXS; small-angle X-ray scattering in solution, ESRF beamline BM-29; molecular weight estimated from the scattering; models evaluated with CRYSOL and CORAL
[7] = biological target: P60_tth (TTHA0266), NlpC/P60 D,L-endopeptidase from Thermus thermophilus, full-length protein (Thermus thermophilus) (UniProt Q5SLM7); assay: SEC; Superdex 75 10/300 GL, 50 mM Tris-HCl pH 8, 200 mM NaCl, 5 mM beta-mercaptoethanol, 0.5 ml/min; apparent molecular weight from a calibration curve
[8] = biological target: the molecule itself; assay: as above

T3 sequence (Q5SLM7 15-114 limits assumed): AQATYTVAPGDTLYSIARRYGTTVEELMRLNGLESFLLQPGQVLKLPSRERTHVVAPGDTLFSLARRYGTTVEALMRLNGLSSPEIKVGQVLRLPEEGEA
T4 sequence (Q5SLM7 entry or part of it Y28A/R32A/F50A/Q53A): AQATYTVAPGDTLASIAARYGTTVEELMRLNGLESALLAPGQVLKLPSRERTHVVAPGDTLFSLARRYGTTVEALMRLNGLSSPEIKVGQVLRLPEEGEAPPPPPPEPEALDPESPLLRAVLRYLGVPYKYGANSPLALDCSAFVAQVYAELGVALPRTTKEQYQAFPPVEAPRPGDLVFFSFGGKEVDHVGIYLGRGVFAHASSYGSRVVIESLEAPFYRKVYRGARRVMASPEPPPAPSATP
T2 sequence (Q5SLM7 entry or part of it F76A/R80A/E99A): as the sequence (Q5SLM7 entry or part of it Y28A/R32A/F50A/Q53A) above, with A14Y, A18R, A36F, A39Q, F62A, R66A, E85A counted along it
T1 sequence (Q5SLM7 15-258): as the sequence (Q5SLM7 entry or part of it Y28A/R32A/F50A/Q53A) above, with A14Y, A18R, A36F, A39Q counted along it

Kd [1]: 90 ± 19.8 µM | Kd [2]: 292 ± 86.5 µM | Kd [3]: 321 ± 112 µM
Molecule: CC(=O)N[C@H]1[C@H](O[C@H]2[C@H](O)[C@@H](NC(C)=O)[C@H](O[C@H]3[C@H](O)[C@@H](NC(C)=O)C(O)O[C@@H]3CO)O[C@@H]2CO)O[C@H](CO)[C@@H](O[C@@H]2O[C@H](CO)[C@@H](O[C@@H]3O[C@H](CO)[C@@H](O[C@@H]4O[C@H](CO)[C@@H](O)[C@H](O)[C@H]4NC(C)=O)[C@H](O)[C@H]3NC(C)=O)[C@H](O)[C@H]2NC(C)=O)[C@@H]1O (stereo partly drawn) [chitohexaose]
X-ray co-crystal structure, 1.75 Å (P60_2LysM): solved the crystal structure of P60_2LysM bound to chitohexaose

stoichiometry N [4]: 2 | stoichiometry N [5]: 2
Molecule: P60_cata (catalytic domain of P60_tth alone) (domain or fragment)

stoichiometry N [6]: 2 | stoichiometry N [7]: 2
Molecule: P60_tth (TTHA0266), NlpC/P60 D,L-endopeptidase from Thermus thermophilus, full-length protein (from UniProt Q5SLM7 1-258) (enzyme)

B1: P60_1LysM (P60_tth with the N-terminal LysM domain deleted) (domain or fragment, Thermus thermophilus, UniProt Q5SLM7 62-258, looked up)
chain: SRERTHVVAPGDTLFSLARRYGTTVEALMRLNGLSSPEIKVGQVLRLPEEGEAPPPPPPEPEALDPESPLLRAVLRYLGVPYKYGANSPLALDCSAFVAQVYAELGVALPRTTKEQYQAFPPVEAPRPGDLVFFSFGGKEVDHVGIYLGRGVFAHASSYGSRVVIESLEAPFYRKVYRGARRVMASPEPPPAPSATP
notes: TTHA0266 (P60_tth) of Thermus thermophilus without the N-terminal LysM domain (LysM2, linker and catalytic domain); predicted molecular weight 21.4 kDa; with Val69 and Thr74 of the text this puts the first residue at Ser62; The start was worked out from the translated primer and the residue numbers printed for LysM2; the C-terminus is as in the full-length construct; source: E. coli BL21 Rosetta …
stoichiometry N [8]: 2
